{
  "source": "paper PMC3159028",
  "origin": "cited, not measured here",
  "target": "Ndel1 58-169 (Homo sapiens) (UniProt Q9GZM8)",
  "sequence (Q9GZM8 58-169)": "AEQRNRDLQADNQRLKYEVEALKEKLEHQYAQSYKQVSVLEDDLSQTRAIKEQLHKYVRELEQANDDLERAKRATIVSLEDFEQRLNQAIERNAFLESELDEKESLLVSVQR",
  "data": [
    {"substance": "Lis1 (from UniProt P43034)", "values": [
      {"measurement": "Kd", "value": 0.3, "unit": "µM"}
    ]}
  ]
}
